In IntAct's records for PubMed 38225382:

B1: Syntaxin-1B (Homo sapiens), P61266 (parent)
chain: MKDRTQELRSAKDSDDEEEVVHVDRDHFMDEFFEQVEEIRGCIEKLSEDVEQVKKQHSAILAAPNPDEKTKQELEDLTADIKKTANKVRSKLKAIEQSIEQEEGLNRSSADLRIRKTQHSTLSRKFVEVMTEYNATQSKYRDRCKDRIQRQLEITGRTTTNEELEDMLESGKLAIFTDDIKMDSQMTKQALNEIETRHNEIIKLETSIRELHDMFVDMAMLVESQGEMIDRIEYNVEHSVDYVERAVSDTKKAVKYQSKARRKKIMIIICCVVLGVVLASSIGGTLGL
partner: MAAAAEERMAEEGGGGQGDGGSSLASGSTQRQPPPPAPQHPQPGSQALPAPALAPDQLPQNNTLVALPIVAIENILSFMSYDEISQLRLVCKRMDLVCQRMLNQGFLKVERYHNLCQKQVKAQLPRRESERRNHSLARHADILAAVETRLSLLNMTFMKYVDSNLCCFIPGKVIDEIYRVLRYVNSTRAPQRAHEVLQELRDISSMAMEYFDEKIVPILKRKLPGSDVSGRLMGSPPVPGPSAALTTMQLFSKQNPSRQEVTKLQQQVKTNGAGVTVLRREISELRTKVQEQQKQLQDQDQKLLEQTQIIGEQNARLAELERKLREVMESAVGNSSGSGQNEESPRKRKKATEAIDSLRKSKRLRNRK

Variants of: B1
Details: with fbx28_human FBXO28, Q9NVF7

For S239P, which “effect of a mutation on the interaction” value is on record?
Its value is “decreasing interaction strength”.

For G226R, which “effect of a mutation on the interaction” value is on record?
Its value is “decreasing interaction strength”.

How did the “effect of a mutation on the interaction” value turn out when N134E was run?
The value was “with no effect”.

For V216E, which “effect of a mutation on the interaction” value is on record?
Its value is “decreasing interaction strength”.
